Source: patent publication US10500249B2, “Compositions and methods for preventing or treating diseases, conditions, or processes characterized by aberrant fibroblast proliferation and extracellular matrix deposition” (MOERAE MATRIX, INC., priority 2014, dated 2019)

How the values were obtained:
Assay in all cases: Kinase Profiling Assay
Format in all cases: biochemical
Details in all cases: 100 μM
ALK (h) = ALK (h) (Homo sapiens, UniProt Q9UM73)
Summary of the method: (§1)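 Scintillation counting quantifies radiolabeled, positively charged substrate retained on a negatively charged filter after kinase reaction with labeled ATP; inhibitor peptide present.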

ARK5 (h) = target: T1, ARK5 (h) (Homo sapiens, UniProt O60285)
T1 sequence (O60285 1-661): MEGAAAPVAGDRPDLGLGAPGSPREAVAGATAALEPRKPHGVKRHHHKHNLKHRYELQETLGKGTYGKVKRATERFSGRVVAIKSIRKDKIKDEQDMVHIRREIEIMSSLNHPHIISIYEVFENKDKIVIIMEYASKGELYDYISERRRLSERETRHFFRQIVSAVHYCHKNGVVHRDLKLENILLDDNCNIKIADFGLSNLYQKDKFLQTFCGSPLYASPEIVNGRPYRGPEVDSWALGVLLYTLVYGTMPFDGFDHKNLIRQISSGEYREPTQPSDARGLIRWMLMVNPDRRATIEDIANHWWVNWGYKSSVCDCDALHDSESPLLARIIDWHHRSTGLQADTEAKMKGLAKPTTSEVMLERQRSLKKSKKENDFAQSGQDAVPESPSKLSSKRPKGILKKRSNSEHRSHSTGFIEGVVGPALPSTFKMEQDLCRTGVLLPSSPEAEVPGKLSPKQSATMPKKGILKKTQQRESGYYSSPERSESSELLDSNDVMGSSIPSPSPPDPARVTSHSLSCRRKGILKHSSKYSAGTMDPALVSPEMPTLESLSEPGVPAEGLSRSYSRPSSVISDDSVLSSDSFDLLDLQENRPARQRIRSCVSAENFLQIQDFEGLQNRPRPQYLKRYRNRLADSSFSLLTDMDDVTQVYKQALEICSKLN
Summary of the method: as §1

CHK2(R145W) (h) = target: T2, CHK2(R145W) (h) (Homo sapiens, UniProt O96017, R145W)
T2 construct: purchased Millipore
Summary of the method: as §1

CK2 (h) = target: T3, CK2 (h) (Homo sapiens, UniProt P68400)
T3 construct: purchased Millipore
Summary of the method: as §1

DCAMKL2 (h) = target: T4, DCAMKL2 (h) (Homo sapiens, UniProt Q8N568)
T4 construct: purchased Millipore
T4 sequence (Q8N568 1-766): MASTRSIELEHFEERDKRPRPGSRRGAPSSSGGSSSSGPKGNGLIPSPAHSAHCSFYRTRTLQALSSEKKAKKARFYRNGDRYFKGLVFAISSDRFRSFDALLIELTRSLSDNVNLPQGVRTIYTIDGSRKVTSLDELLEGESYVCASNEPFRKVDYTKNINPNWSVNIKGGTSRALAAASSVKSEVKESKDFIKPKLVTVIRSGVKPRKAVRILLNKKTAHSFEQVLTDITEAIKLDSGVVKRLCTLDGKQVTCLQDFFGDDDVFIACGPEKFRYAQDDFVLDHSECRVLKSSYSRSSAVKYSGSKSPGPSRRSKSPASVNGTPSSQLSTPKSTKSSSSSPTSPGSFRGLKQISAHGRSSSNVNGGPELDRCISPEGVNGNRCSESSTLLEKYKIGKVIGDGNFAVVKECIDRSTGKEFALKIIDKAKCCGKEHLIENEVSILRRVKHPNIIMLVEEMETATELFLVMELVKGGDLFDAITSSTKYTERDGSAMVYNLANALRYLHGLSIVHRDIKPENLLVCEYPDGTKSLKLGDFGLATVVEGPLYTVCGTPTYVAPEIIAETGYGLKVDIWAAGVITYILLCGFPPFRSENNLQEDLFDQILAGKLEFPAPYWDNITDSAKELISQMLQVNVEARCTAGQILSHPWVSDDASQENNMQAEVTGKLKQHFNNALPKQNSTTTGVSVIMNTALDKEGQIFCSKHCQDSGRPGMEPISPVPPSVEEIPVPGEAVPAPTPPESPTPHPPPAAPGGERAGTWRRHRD
Summary of the method: as §1

Met(M1268T) (h) = Met(M1268T) (h) (Homo sapiens, UniProt P08581, M1250T)
Summary of the method: as §1

MEK1 (h) = MEK1 (h) (Homo sapiens, UniProt Q02750)
Summary of the method: as §1

Mnk2 (h) = target: T5, Mnk2 (h) (Homo sapiens, UniProt Q9HBH9)
T5 construct: purchased Millipore
Summary of the method: as §1

MuSK (h) = target: T6, MuSK (h) (Homo sapiens, UniProt O15146)
T6 construct: purchased Millipore
T6 sequence (O15146 24-869): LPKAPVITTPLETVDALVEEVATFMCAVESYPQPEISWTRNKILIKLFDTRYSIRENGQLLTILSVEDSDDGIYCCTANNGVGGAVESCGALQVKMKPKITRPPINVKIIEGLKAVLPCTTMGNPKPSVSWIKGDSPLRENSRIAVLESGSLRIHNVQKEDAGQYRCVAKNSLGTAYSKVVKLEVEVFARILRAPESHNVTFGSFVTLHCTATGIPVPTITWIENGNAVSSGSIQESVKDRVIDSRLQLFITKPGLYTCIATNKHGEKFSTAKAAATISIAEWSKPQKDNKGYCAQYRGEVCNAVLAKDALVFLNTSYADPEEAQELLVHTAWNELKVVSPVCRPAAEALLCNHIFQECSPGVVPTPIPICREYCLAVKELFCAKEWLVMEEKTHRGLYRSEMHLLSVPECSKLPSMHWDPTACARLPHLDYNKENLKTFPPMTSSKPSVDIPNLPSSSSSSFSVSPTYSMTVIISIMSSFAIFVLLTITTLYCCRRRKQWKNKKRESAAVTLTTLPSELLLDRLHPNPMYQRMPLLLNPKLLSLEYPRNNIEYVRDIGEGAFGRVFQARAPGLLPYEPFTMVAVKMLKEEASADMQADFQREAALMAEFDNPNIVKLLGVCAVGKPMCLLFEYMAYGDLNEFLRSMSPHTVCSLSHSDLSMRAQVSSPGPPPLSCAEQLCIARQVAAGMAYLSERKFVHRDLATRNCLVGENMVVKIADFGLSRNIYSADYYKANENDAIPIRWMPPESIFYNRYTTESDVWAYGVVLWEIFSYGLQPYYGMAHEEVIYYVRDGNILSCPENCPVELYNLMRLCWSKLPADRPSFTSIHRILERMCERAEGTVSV
Summary of the method: as §1

PKBγ (h) = target: T7, PKBγ (h) (Homo sapiens, UniProt Q9Y243)
T7 construct: purchased Millipore
Summary of the method: as §1

T7 sequence (Q9Y243 whole entry): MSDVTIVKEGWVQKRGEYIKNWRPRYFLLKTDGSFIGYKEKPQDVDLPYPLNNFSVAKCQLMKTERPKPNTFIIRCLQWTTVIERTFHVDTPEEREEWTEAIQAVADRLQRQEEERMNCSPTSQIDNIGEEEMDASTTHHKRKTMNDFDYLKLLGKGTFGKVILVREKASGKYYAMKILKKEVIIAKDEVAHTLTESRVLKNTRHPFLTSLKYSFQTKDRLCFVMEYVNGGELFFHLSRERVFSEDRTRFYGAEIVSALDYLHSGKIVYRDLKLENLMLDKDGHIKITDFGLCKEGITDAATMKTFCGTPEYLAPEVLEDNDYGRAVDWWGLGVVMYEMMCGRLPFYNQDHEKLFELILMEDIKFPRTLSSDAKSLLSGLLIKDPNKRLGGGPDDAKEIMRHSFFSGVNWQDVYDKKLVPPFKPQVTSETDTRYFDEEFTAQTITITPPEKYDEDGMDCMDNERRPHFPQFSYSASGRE
T5 sequence (Q9HBH9 whole entry): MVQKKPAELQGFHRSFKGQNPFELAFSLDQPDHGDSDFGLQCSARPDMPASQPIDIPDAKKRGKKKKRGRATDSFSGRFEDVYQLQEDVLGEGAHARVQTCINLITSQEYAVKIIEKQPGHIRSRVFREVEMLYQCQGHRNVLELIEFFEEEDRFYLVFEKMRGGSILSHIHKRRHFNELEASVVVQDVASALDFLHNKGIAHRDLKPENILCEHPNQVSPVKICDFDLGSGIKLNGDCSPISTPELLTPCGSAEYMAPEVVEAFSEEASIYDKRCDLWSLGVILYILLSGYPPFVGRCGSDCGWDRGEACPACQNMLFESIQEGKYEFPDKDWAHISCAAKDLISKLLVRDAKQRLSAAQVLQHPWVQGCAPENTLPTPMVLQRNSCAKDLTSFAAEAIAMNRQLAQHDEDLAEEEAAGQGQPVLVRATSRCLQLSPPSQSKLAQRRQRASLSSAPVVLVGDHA
T3 sequence (P68400 whole entry): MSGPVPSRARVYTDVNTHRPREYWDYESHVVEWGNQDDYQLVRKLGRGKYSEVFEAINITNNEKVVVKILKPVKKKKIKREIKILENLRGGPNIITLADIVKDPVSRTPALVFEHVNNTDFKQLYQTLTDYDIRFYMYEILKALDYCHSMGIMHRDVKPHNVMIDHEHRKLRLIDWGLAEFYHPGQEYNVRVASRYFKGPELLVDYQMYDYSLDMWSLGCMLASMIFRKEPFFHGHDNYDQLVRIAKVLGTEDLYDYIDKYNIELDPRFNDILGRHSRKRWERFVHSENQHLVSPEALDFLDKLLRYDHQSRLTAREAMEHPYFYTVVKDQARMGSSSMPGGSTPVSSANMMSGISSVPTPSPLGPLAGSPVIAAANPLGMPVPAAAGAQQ
T3 sequence (P67870 whole entry partner): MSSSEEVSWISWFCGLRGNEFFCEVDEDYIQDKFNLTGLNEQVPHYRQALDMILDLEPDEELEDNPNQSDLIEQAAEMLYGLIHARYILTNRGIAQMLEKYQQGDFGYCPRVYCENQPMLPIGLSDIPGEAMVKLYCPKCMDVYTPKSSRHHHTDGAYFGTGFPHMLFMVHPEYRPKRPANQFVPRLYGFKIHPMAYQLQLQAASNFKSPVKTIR
T2 sequence (O96017 whole entry R145W): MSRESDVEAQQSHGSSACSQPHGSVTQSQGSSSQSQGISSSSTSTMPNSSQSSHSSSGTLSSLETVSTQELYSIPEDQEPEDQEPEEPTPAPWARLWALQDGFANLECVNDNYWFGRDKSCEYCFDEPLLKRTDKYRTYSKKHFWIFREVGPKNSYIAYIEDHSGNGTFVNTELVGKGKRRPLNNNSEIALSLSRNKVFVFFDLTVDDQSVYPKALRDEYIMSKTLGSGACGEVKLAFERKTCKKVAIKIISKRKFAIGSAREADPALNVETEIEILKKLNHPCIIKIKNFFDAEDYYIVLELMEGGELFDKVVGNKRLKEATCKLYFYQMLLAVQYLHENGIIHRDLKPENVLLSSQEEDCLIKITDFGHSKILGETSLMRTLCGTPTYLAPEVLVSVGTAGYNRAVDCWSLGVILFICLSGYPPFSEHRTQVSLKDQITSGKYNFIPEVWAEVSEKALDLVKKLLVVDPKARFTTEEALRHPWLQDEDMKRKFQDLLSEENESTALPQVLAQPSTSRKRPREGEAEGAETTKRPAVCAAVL
Sequence of ALK (h) (Q9UM73 19-1620): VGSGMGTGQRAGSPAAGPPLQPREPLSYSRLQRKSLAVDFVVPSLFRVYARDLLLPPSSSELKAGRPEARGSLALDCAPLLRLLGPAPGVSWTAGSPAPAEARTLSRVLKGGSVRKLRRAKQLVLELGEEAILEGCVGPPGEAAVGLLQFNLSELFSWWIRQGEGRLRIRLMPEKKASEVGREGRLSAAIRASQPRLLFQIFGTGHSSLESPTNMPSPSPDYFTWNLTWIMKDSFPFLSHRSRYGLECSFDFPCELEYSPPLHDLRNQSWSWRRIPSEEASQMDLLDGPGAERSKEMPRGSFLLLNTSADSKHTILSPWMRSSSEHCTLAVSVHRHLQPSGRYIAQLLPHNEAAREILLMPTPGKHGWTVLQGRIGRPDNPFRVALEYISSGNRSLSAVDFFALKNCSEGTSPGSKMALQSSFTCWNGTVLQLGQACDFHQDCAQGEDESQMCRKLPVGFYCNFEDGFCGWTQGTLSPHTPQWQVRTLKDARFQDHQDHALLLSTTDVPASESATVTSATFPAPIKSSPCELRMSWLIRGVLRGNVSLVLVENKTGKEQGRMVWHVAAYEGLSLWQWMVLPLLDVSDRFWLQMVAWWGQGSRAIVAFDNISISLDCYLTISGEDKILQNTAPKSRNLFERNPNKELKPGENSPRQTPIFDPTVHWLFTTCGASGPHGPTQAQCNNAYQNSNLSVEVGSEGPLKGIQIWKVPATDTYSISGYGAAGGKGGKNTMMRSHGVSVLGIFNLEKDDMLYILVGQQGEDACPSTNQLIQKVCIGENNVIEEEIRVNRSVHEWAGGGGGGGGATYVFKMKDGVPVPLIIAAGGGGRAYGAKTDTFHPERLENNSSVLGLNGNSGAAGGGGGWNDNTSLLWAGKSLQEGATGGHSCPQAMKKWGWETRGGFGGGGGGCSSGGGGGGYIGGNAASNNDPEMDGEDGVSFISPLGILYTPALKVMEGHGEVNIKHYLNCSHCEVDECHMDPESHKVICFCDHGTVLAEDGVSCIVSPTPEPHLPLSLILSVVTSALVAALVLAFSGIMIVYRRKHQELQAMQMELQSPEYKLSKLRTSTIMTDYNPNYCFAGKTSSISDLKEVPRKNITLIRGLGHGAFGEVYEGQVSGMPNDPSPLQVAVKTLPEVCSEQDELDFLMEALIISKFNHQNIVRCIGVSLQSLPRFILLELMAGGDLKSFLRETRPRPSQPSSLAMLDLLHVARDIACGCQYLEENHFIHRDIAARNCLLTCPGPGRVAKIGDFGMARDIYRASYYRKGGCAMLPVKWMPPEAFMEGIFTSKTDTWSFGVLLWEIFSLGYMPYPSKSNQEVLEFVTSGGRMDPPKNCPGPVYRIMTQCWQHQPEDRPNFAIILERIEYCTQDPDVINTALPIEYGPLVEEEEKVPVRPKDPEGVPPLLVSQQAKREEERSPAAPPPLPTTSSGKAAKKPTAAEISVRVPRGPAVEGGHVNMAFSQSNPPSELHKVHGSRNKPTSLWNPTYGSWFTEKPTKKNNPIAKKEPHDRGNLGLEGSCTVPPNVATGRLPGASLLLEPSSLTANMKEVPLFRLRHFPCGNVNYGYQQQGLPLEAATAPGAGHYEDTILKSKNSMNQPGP

Row | Sequence | % activity (ALK (h)) | % activity (ARK5 (h)) | % activity (CHK2(R145W) (h)) | % activity (CK2 (h)) | % activity (DCAMKL2 (h)) | % activity (Met(M1268T) (h)) | % activity (MEK1 (h)) | % activity (Mnk2 (h)) | % activity (MuSK (h)) | % activity (PKBγ (h))
1 | YARAAARQARAKALNRQLGVA (Mammalian) [MMI-0200] | 95% | 93% | 81% | 83% | 131% | 143% | – | – | – | –
2 | HRRIKAWLKKIKALARQLGVAA (Mammalian) [MMI-0500] | 12% | 20% | 3% | 93% | 56% | 239% | 21% | 6% | 27% | 20%
3 | FAKLAARLYRKALARQLGVAA [MMI-0300] | 19% | 78% | 33% | 90% | 81% | 255% | 77% | 89% | 93% | 20%
4 | KAFAKLAARLYRKALARQLGVAA [MMI-0400] | 16% | 69% | 31% | 101% | 70% | 265% | 77% | 86% | 93% | 41%
